From the domain aggregation screens of Martell et al. (2025)

Experiment: soluble fraction after stress (log2 fold change); higher = more stays soluble; pooled small domains, quantitative proteomics
Settings: stress: 50 degC
Outline: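 After stress at 50°C, the amount of each protein still soluble was measured. This was done on pooled custom libraries of small protein domains, using high-throughput quantitative proteomics. The figure given is a base-two log fold change and stands for aggregation propensity, with higher values meaning more protein stays in solution.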

Sequence: HMSVPQENKDLLGRSIEIFYAGKTVEAKVTDTGALAPLGRALDLSPATWRAFGASSISDWGVRGVFYRFVA
- soluble fraction (log2): 0.0464

Sequence: HMSVSTGTITGSVVNLREEPNTSSKVLDKLPKDTVVYVLSASGEWYNVSYGDKTGWVYGEYLA
- soluble fraction (log2): -0.163

Sequence: HMSVTSEIGAKIKYFRKSKHFSLQEMADLLYKSKSTLSKYENGQISIDIETLYAIAKVLGVHVEQLLYSEP
- soluble fraction (log2): -4.49

Sequence: HMSVTSIEGRVVYDENANKIGIAKQVGIDSTQSMVLVLTKNDGTEGSISWNNIKKIGEIILLGN
- soluble fraction (log2): -0.369

Sequence: HMSWAGRRSLAALEARYRDETGISNLKIKHNGVLGYHIEVPSKSADKLMAPDSGFTHRQTLAGAVR
- soluble fraction (log2): 0.0529

Sequence: HMSYDAINGYEPSDLRGSLTLEQTASMLNLPLTDVYARLGLPANYPSGATLKDGAADMGMGLSDFKHQLF
- soluble fraction (log2): -0.0605

Sequence: HMSYLDTLPGRRVAAQGAITGDAGTLAVDGDTWSARVEPGAPDVAPGDEVTVLRIDGATLVVRPLP
- soluble fraction (log2): -0.0478

Sequence: HMSYPFSEDALKEKIREYLKHNRSINRKVLEAEFHIRKQTALNWLKKLEKSGFLIKEGSRNAPVYFLAE
- soluble fraction (log2): -0.832

Sequence: HMSYQADEIKEKLIDILQNQKTGLSGLEISERIGINRITMTKYLQVFAAEGFIKQKNIGNVIIWFIEDGTE
- soluble fraction (log2): -0.181

Sequence: HMSYTYPVARLNHIKGKWYVLVSVPAHLRHLFPNQRDLRRSTGTDDESLAKRKQHALAQEIYDLFD
- soluble fraction (log2): -0.468

Sequence: HMTAFEPYLVKVMASVLNIRKGPGTSYAITGQIKDKGTYTIVAESGSWGKLKSGAGWISLSYTSKAGKA
- soluble fraction (log2): -0.67

Sequence: HMTAFSEQLIKLRKQKGLSQEQLGAAVGVTRQTVSKWELGDTTPELGKLVQLSDYFQLSIDELVGH
- soluble fraction (log2): -0.0666

Sequence: HMTAGTTALNKLQQGMSTQQVQAALGTPSDRTVKESGVELWKYYYPYENMLLYLKFRDGHLVSFGTN
- soluble fraction (log2): -0.0161

Sequence: HMTAKQDLDSIYRHLVATRKSIAENPKMVSSIDDPQALIKMLDYAIQYFYTDKRDEALAVLEKNEEQLNFR
- soluble fraction (log2): -0.117

Sequence: HMTALTTEDLERRFYAKTYEGESAQKRLARLEISVFGELRQGRPESDRLHDLNNAVLEKERAALNAGAVG
- soluble fraction (log2): 0.123

Sequence: HMTAMQYVTIKDIADALGISKSSVSRALAGDVHNVSAQTIERVRAKALEMGYLRNNAAVNLR
- soluble fraction (log2): -0.0718

Sequence: HMTANDKRNALYRKIEVGRRQLPAMDEVAFRQLLAAEFGVESRKDMSVGQLSRLVNILAEKGAVF
- soluble fraction (log2): -0.203

Sequence: HMTANTLDLTYSQFLENVKNGSVNDVTIRGNNVSGNFSDGRKFKTYAVNDPTLVEKLTKMGVNISAAPL
- soluble fraction (log2): 0.267

Sequence: HMTAPELSVGDYLEYRGKEYKVESLDMDGFITLTDTALEDAPRLISRVTFLTDEFIRSGEYMVIT
- soluble fraction (log2): -0.169

Sequence: HMTAQGDSSDAVQRAITEILRHEDPSHPFSDQQLVIKLRTMDISVSRRTVTKYRKLLHIPSSTHRK
- soluble fraction (log2): -2.74

Sequence: HMTARYQQVEDYIVRRIQDGSWPPGHRLPSEHELVQQFGMSRMTVNRALRDLMQKGRIVRVAGVGSFVAQD
- soluble fraction (log2): -1.41

Sequence: HMTATSKKAAWDEVNKIFPTDYERSAAESERAGYAIFRSTAEGVNAWISDLGDRLEINLPDGKTVNIWIEE
- soluble fraction (log2): -0.282

Sequence: HMTATVPDSEAGIRLDVYAAALLGVSRAGAQKYIESGAVRVNGLPAPKNRRLESGDVIEAVLPDPE
- soluble fraction (log2): 0.157

Sequence: HMTAVAAEQQAQDAYRQTAANNLNEIQAKYKLPDSESDDFFTFAYERGFTQEDFIDIGLVDKIMGDYV
- soluble fraction (log2): 0.0927

Sequence: HMTAVNEHELMNQFKLSLGYANGDDPQTKLSTDEKNDFMRFKEWATAMTKDSKMGKDPDYLKKLAVQWTLK
- soluble fraction (log2): 0.214

Sequence: HMTAYEGLPVTLIIDGRVFQQNLQKMNLSVEWLRLELKKFGVTNLKEVLFASLDTEGKLFYQLKT
- soluble fraction (log2): 0.0485

Sequence: HMTDEYYSYIGKTGTTITVLRPAGIAEVEGERLNVVSEGEFIRKGAAILVKEVEGARILVEEVN
- soluble fraction (log2): -0.381

Sequence: HMTDFESYTVRVTATNLNIRKGAGTNFHSAGYIKPGVYTIVEEADGKGATRWGKLKSGMGWISLDYAKK
- soluble fraction (log2): -0.763

Sequence: HMTDGYAMRLERLNSLEEYVLNKGTVSLEDLAERFGVSINTIRRDLNELISRGQIKKVYGGVSSLHD
- soluble fraction (log2): 0.0904

Sequence: HMTDIDATSIERAVAKRRHFFLSNIQDLTMKMARRLIEKDLGLAPKHLDAAPFKTRITELVDAVIALGD
- soluble fraction (log2): -0.165

Sequence: HMTDIKYLIADGNDIKHWDTASSSYVKVSELPLTSDKFKIYGDDIYHKERTGIIAASPILKIWSPSAE
- soluble fraction (log2): 0.369

Sequence: HMTDKLIAYSVDGILNVITSEAQSVKVYAIDGRLVRILQLGEGRNEVSGLAKGIYIVDNRKVAV
- soluble fraction (log2): -1.71

Sequence: HMTDLNQIGERIKGLRDALGYSPEKMASILEQKVDDYLAYEEGTKDISLSVLQRIEKEFDIDLSTLLFGT
- soluble fraction (log2): -0.148

Sequence: HMTDRKRDAIVQAAIGEFREHGFNGTSMDRVAAAADVSKRTVYNHFPSKEELFEAILLLMWE
- soluble fraction (log2): -2.09

Sequence: HMTDSISLTLNGDPRPFRAGATVADLVRDIGLDPAKVAVERNLEIVPRSTLENVHLADGDVLEIVHFV
- soluble fraction (log2): 0.0403

Sequence: HMTDTIALRSVIAESGLKYKALAEIMGLSPYTLQMKIDNESEFKASEIDALANALGMDMQQRDSIFF
- soluble fraction (log2): -0.701

Sequence: HMTDVIADMLTRIRNAASSKHQTVDIPSSNLKKEIAKILLEEGYIRDFIEIDDKKQGIIRITL
- soluble fraction (log2): -0.389

Sequence: HMTDYREILRLLSLGLSRTQIADSLNVSRTTVIHTLQRAVAQELDWQTAEGMSDRELVAKLFPV
- soluble fraction (log2): -3.47

Sequence: HMTEAVYMPALQNKTLEEAQRIVEQYDLELEYTYEANAQVEEGRILSQTPQMGVLVERGEKVQAVVSLG
- soluble fraction (log2): 0.571

Sequence: HMTEDELLAQFEEILDGYVGKPGGLIPALQTAQKLFGYLPKRVLQLISMKLDIPYSEVTGVVSFYSFFTTV
- soluble fraction (log2): -0.0145

Sequence: HMTEEEEFEKGFEILVNLSHFNRFSVYKEDEYVIVRIADYDFNEYFKVKKSDVGRIAEFLNENIT
- soluble fraction (log2): -2.4

Sequence: HMTEELLNQRKETMLALLNDPTYVPMKLKELAMLLNLSRDQRDELREVMESLEQDGKVILTKRGKYKIP
- soluble fraction (log2): -0.269

Sequence: HMTEELQDMESRIIEAAKRVFVRKGYEATKMSDIALEVGLGRTALHYYFRTKEMLFDAIFGRLMGV
- soluble fraction (log2): -0.385

Sequence: HMTEEPISDGIKKLVEEWENIEGNLIMIFHGIQKHYGYVPRNVAKYVSEAIDVPLTRIYEILTFYNYFTM
- soluble fraction (log2): 0.142

Sequence: HMTEEYAVLWRVARQTLKPEAFDVLWMKYREQLSIAEIAGIMNRSETSVKVMLHRARKNLGTALESS
- soluble fraction (log2): -1.71

Sequence: HMTEKIEWYKEVLELEPNSKVFFPLARMLAEEQRFDEAVAVLEHGLERHGEFLEARLFFIELLHET
- soluble fraction (log2): -3.69

Sequence: HMTEKQYIYSIGDRVNIGTDEFEIVNINEKEVSIADVTFPMLVKQISYEEFDRKVKENPFNDHLII
- soluble fraction (log2): 0.0642

Sequence: HMTEKSTRSVPQEHEGKRLDVAAALLFPVYSRSELARRIDAGYLLLNGKGSTPKTKVHELDLIELLEV
- soluble fraction (log2): -0.341

Sequence: HMTELKKTAVDTWVKDLGTEQALAKLDTLAVVKLRRLAREYKAFGIAGRAISKADKGMLLAEFRAYYEN
- soluble fraction (log2): -1.86

Sequence: HMTETSKLTDAKQLLESILSSGEVSYKDIISAAEEYEIGKRTLMSAKALLSIESIKKTDGWYWTLPH
- soluble fraction (log2): -0.213

Sequence: HMTEVPSLSSLKIGDLIFYRNNKGAIAHSAIITSFYNGRPFISQHTFNALNITYVKDWASKMHFIKIW
- soluble fraction (log2): -0.0353

Sequence: HMTEWDDATVKDAVEYFMSVNGRVPTVTDFKKENGLPSHPVIKQRYKINLHEWLNKNFPTYY
- soluble fraction (log2): -0.544

Sequence: HMTFEPVYDENSRILILGTFPSVKSREQQFYYGHPQNRFWKLLAALTGWKVPKTISEKKELLLQNGIA
- soluble fraction (log2): -0.136

Sequence: HMTFFDDLLYQAKAAVDNDPSIKPSLHNRAIIEILYQQGVFNMKNAVEHVAELLEISKNTVYLHLRSVKG
- soluble fraction (log2): -0.973

Sequence: HMTFGEMLQYTNRLKEILESNAPQSIKDRRLANLMTDLEQAYGIPILRDQEFEKENPFLMQLYRTIS
- soluble fraction (log2): -2.06
